# Results: patent US20230348614A1 (VISTERRA, published 2023)
# Substitutions are numbered along the chain they refer to. Primed or numbered codes have the meaning given here. The star is where a group is joined. dPEG8″ = dPEG8: discrete polyethylene glycol-8 linker (between N-terminal biotin and the peptide); dPEG8 = discrete polyethylene glycol-8 linker (long chain); Biotin = O=C1N[C@H]2[C@H](CS[C@H]2CCCCC(=O)*)N1
# T1: Recombinant soluble human CD138 extracellular domain (analyte in SPR) (human, UniProt P18827 23-254)
# T1 construct: extracellular domain; also called recombinant CD138 (the antigen)
# T1 sequence (looked up): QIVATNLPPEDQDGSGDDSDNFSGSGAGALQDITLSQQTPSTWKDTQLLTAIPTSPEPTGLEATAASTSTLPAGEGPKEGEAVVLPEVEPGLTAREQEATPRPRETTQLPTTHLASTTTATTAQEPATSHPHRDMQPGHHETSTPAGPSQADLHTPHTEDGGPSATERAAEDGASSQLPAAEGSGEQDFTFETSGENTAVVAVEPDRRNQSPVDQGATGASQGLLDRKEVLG
# T2: Peptide 2D (human)
# T2 construct: Chemically synthesized human CD138 peptide, 15 residues
# T2 peptide: {Biotin-dPEG8″}-GEAVVLPEVEPGLTA-OH
# T3: Peptide 138-2-1 (human)
# T3 construct: Chemically synthesized human CD138 peptide, 8 residues
# T3 peptide: {Biotin-dPEG8}-VLPEVEPG-OH
# T4: Peptide 138-2-2 (human)
# T4 construct: Chemically synthesized human CD138 peptide, 7 residues
# T4 peptide: {Biotin-dPEG8}-LPEVEPG-OH
# T5: Peptide 138-2-3 (human)
# T5 construct: Chemically synthesized human CD138 peptide, 8 residues
# T5 peptide: {Biotin-dPEG8}-PEVEPGLT-OH
# T6: Peptide 6B (human, N-terminal biotin through a long chain (dPEG8) linker (Biot-LC-); C-terminal -OH)
# T6 construct: Chemically synthesized human CD138 peptide, 33 residues
# T6 peptide: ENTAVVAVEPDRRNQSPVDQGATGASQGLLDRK
# T7: Peptide 6F (human)
# T7 construct: Chemically synthesized human CD138 peptide, 15 residues
# T7 peptide: {Biotin-dPEG8″}-ENTAVVAVEPDRRNQ-OH
# T8: Peptide 138-6-1 (human)
# T8 construct: Chemically synthesized human CD138 peptide, 8 residues
# T8 peptide: {Biotin-dPEG8}-VVAVEPDR-OH
# T9: Peptide 2A (human, N-terminal biotin through a long chain (dPEG8) linker (Biot-LC-); C-terminal -OH)
# T9 construct: Chemically synthesized human CD138 peptide, 34 residues; also called Pep2a
# T9 peptide: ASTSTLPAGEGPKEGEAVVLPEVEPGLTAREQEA
# T10: Peptide 2C (human, N-terminal biotin through a long chain (dPEG8) linker (Biot-LC-); C-terminal -OH)
# T10 construct: Chemically synthesized human CD138 peptide, 20 residues
# T10 peptide: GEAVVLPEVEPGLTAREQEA
# T11: Peptide 6 (human, N-terminal biotin through a long chain (dPEG8) linker (Biot-LC-); C-terminal -OH)
# T11 construct: Chemically synthesized human CD138 peptide, 41 residues; also called Pep6
# T11 peptide: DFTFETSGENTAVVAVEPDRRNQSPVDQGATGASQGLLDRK
# T12: CD138 on the surface of U266 cells (CD138+ human lymphoblastic myeloma cell line) (human, UniProt P18827 23-310)
# T12 construct: whole, on cells; also called cell surface CD138; membrane CD138
# T12 sequence (looked up): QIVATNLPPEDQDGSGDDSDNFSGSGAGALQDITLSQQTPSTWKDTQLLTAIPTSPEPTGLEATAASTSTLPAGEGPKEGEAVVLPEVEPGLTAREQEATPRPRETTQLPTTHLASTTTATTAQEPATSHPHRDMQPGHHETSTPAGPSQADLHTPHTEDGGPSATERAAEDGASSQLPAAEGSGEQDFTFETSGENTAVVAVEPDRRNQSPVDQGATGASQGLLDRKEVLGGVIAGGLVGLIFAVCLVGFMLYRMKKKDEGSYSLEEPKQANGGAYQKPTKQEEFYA
# T13: Biotinylated recombinant soluble human CD138 extracellular domain (Sino Biological, Cat. 11429-H08H) (human, UniProt P18827 18-251, biotin (EZ-Link NHS-SS-PEG4 Biotin) on primary amino groups of lysines, protein:biotin 1:20)
# T13 construct: range 18-251; Bought reagent; The limits are printed as approximate; also called biotinylated CD138; recombinant CD138
# T13 sequence (looked up): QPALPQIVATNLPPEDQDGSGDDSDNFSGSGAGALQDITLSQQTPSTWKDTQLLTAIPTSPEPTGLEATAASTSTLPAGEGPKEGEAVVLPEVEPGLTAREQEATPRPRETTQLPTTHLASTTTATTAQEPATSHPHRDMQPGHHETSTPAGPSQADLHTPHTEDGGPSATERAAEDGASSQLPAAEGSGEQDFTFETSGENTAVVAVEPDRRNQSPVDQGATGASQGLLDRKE
# B1: mAb 4320 (parental humanized anti-CD138 antibody) (antibody, human IgG1, kappa, V domains shown)
# VH: QVQLVQSGAEVKKPGASVKVSCKASGYSFSSYYMHWVRQAPGQGLEWMGTIHPSDSTTNYNQKFQGRVTMTVDTSTRTAYMELSSLRSEDTAVYYCANFVYWGQGTTVTVSS
# VL: DIVMTQTPLSLSVTPGQPASISCKSSKSLLYKDGKTYLNWFLQKPGQSPQLLIYVVSTRASGVPDRFSGSGSGTDFTLKISRVEAEDVGVYYCQQLVEYPYTFGQGTKLEIKR
# notes: Full-length IgG; heavy constant region human gamma 1 (m3 allotype), light chain kappa constant*01
# B2: Antibody Ab43 (antibody, V domains shown)
# VH: B1 VH with Q1E, N98D
# VL: DIVMTQTPLSLSVTPGQPASISCKSSKSLLYKDGKTYLLWFLQKPGQSPQLLIYVVSTRASGVPDRFSGSGSGTDFTLKISRVEAEDVGVYYCQQLVEYPYTFGQGTKLEIK
# B3: Antibody 29-0 (antibody, V domains shown)
# VH: B1 VH with Q1E, H52Y, S54G, D55A, N98D
# VL: B2 VL with L39N
# notes: also called mAb 29-0
# How the values were obtained:
# [1] = molecular target: T1, Recombinant soluble human CD138 …; experiment: SPR (Carterra LSA): antibody captured by anti-human IgG, CD138 as analyte, pH 7.4, 1:1 fit
# From the text: (§1) This method as described, immobilizes the target (recombinant CD138) through biotinylation-streptavidin capture. Such a method may, in principle, lead to biases in binding due to either chemical modification of the capture ligand and/or avidity effects due to immobilization of this ligand on the biosensor. Moreover, this method depends on diffusion-based principles of dissociation leading to non-equilibrium binding states. Surface plasmon resonance is an orthogonal, commonly used method for determining binding kinetics and deriving affinity values based on these parameters. In this method, antibodies were directly coupled to the sensor chip and probed with several concentrations of recombinant CD138 (the antigen) varying from 100 nM to 41 nM. This evaluation was completed under two different pH conditions, i.e., pH 6.0 and pH […].
# (§2) Antibody-CD138 binding was evaluated on a Carterra LSA high throughput SPR instrument. Binding experiments were carried out using binding buffer comprising 100 mM sodium phosphate, 150 mM NaCl and 0.05% Tween-20 buffer. Buffers were adjusted to target pH of 7.4 and 6.0, by use of sodium hydroxide or HCL, respectively. All steps were also carried out independently at these respective buffer pHs. Antibodies were captured on the SPR (CMDP) chip using an anti-human IgG covalently coupled to the CMDP chip based on standard protocols, as described by the instrument manufacturer, and to create a uniform lawn on the chip surface at a target 25 nM anti-CD138 antibody concentration. Binding to CD138 was achieved by uniformly passing binding analyte with increasing concentrations of CD138 (41 nM-100 nM) for 15 minutes and allowing dissociation for 20 minutes. Analyte was flowed over the chip at a rate of 2 milliliters/minute. Raw binding data were processed using kinetics data analysis software also provided by the manufacturer (Carterra) following as 2X background subtraction that used the first six injections of buffer blanks and the internal machine reference controls. Kinetic data was analysed using a global fit and assuming a 1:1 binding interaction. Further analysis of individual binding curves (sensorgrams) with best fits were used to refine the calculation of kinetic parameters.
# [2] = molecular target: T2, Peptide 2D; experiment: BLI (Octet): biotinylated peptide (50 nM) on streptavidin sensors, mAb 4320 in solution, PBS pH 7.4; qualitative score
# [3] = molecular target: T3, Peptide 138-2-1; experiment: BLI (Octet): biotinylated peptide (50 nM) loaded on streptavidin SA biosensors, mAb 4320 in solution, PBS pH 7.4 with 0.02% Tween-20
# [4] = molecular target: T4, Peptide 138-2-2; experiment: as above
# [5] = molecular target: T5, Peptide 138-2-3; experiment: as above
# [6] = molecular target: T6, Peptide 6B; experiment: BLI (Octet): biotinylated peptide (50 nM) loaded on streptavidin SA biosensors, mAb 4320 in solution, 300 s association then dissociation, PBS pH 7.4 with 0.02% Tween-20
# [7] = molecular target: T7, Peptide 6F; experiment: as above
# [8] = molecular target: T8, Peptide 138-6-1; experiment: as above
# [9] = molecular target: T9, Peptide 2A; experiment: as above
# [10] = molecular target: T10, Peptide 2C; experiment: as above
# [11] = molecular target: T11, Peptide 6; experiment: as above
# [12] = molecular target: T12, CD138 on the surface of U266 cells …; experiment: flow cytometry on U266 cells at pH 6.0, MFI against antibody concentration (0.01-10 ug/mL)
# Experimental: (§3) Antibody binding to membrane CD138 was evaluated using the CD138+ human lymphoblastic myeloma cell line (U266) and quantified by flow cytometry. Cells were grown in RPMI1640 with 10% FBS. […] Cells were washed (1X) with same pH-matched buffer (and as throughout the experiment) followed by incubation with secondary (detection) goat anti-human Fab( Jackson Immuno Research) conjugated with Alexa Fluor-488 for 30 minutes also at either pH 6.0 or 7.4. Cells were washed once more and resuspended in matching pH buffer and evaluated by flow cytometry. Antibody cell binding was reported as geometric mean fluorescence intensity (MFI). Dose-response curves were generated using GraphPad Prism. Binding data were plotted using nonlinear regression analysis and a 4-parameter curve fit.
# [13] = molecular target: T12, CD138 on the surface of U266 cells …; experiment: flow cytometry on U266 cells at pH 6, MFI against antibody concentration (about 0.03-30 ug/mL)
# Experimental: as §3
# (§4) Binding was evaluated as described.
# [14] = molecular target: T12, CD138 on the surface of U266 cells …; experiment: flow cytometry on U266 cells at pH 7, MFI against antibody concentration (about 0.03-30 ug/mL)
# Experimental: as §3, §4
# [15] = molecular target: T13, Biotinylated recombinant soluble human …; experiment: BLI (Octet): biotinylated CD138 (10 nM) on streptavidin tips, antibody 12.5 and 25 nM, pH 6.0, 1:1 fit
# Experimental: Binding experiments were carried using assay buffer comprised of 100 mM Sodium Phosphate+ 150 mM NaCl + 0.02% Tween-20 and adjusted to target pH of 7.4, 6.0, 6.4, or 6 using appropriate ratios of monobasic and dibasic sodium phosphate buffer. 25 nM biotinylated CD138 was loaded onto Streptavidin capture Octet (SA) tips for 120 seconds (antigen loading step) followed by antibody binding for associated for 300 seconds (association step), and subsequently dissociation for 300 seconds (dissociation step). All steps were carried out at the respective target pH using the corresponding pH adjusted buffers.
# Modifications to this protocol included lowering the loading concentration of biotinylated CD138 from 25 nM to 10 nM and varying the test antibody concentrations ranging from 25 nM down to 0.8 nM (as 2-fold dilutions). The rationale for doing so was to potentially reduce any target avidity effects while also looking at the analyte concentration dependency.
# Data were analyzed for purposes of calculating approximate kinetic binding parameters and apparent binding affinities based on these rates. Data was fit assuming a 1:1 binding model.
# [16] = molecular target: T12, CD138 on the surface of U266 cells …; experiment: flow cytometry on U266 cells at pH 6.5, MFI against antibody concentration (about 0.03-30 ug/mL)
# [17] = molecular target: T12, CD138 on the surface of U266 cells …; experiment: flow cytometry on U266 cells at pH 7.4, MFI against antibody concentration (about 0.03-30 ug/mL)
# Experimental: as §3, §4
# [18] = molecular target: T12, CD138 on the surface of U266 cells …; experiment: flow cytometry on U266 cells at pH 6.0, MFI against antibody concentration (0.04-10 ug/mL shown)
# Experimental: as §3
# [19] = molecular target: T1, Recombinant soluble human CD138 …; experiment: SPR (Carterra LSA): antibody captured by anti-human IgG, CD138 as analyte, pH 6.0, 1:1 fit; pH 6.0, SPR
# From the text: as §1, §2
binder,measurement,setting,value
B1,Kd,[1],0.2 nM
same,koff,[1],8.5e-05 s⁻¹
same,kon,[1],370000 M⁻¹ s⁻¹
same,binding result,[2],binds
same,binding result,[3],no binding
same,binding result,[4],no binding
same,binding result,[5],no binding
same,binding result,[6],binds
same,binding result,[7],binds
same,binding result,[8],binds
same,binding result,[9],binds
same,binding result,[10],binds
same,binding result,[11],binds
B2,EC50 (read off the curve),[12],~0.5 µg/mL
same,EC50 (read off the curve),[13],~0.6 µg/mL
same,EC50 (read off the curve),[14],~0.9 µg/mL
same,Kd,[15],6.5 nM
same,koff,[15],0.0041 s⁻¹
same,kon,[15],630000 M⁻¹ s⁻¹
same,EC50 (read off the curve),[16],~0.7 µg/mL
same,EC50 (read off the curve),[17],~1 µg/mL
B3,EC50 (read off the curve),[13],~0.6 µg/mL
same,EC50 (read off the curve),[18],~0.6 µg/mL
same,Kd,[19],28 nM
same,koff,[19],0.0042 s⁻¹
same,kon,[19],150000 M⁻¹ s⁻¹
same,EC50 (read off the curve),[16],~0.9 µg/mL
